{"source": "the DeepSol protein solubility set", "data": [{"assay": "soluble on expression in E. coli; label from the status in PepcDB or PDB records", "values": [{"sequence": "MAETEILKCIGCGAPLQSEDLDAPGYVPESSLYKEDVICKRCFRLKNYNEVQDVGLDSEDFLNLLNGLADKKGIVVNVVDVFDFEGSFINAIKRIVGNKQIILVGNKLDLLPKQINKRRVKEWLKKTARKYGLDAEDVILISAEKNEGIEDLLNAINTLRNNDDVYIVGTTNVGKSTLINKLIERSVGEKNVVTTSRFPGTTLDMIDIPLDDTSFMYDTPGVIQEHQMTHYVTEKELKTIMPKKEVKQRVYQLNEGQTLFFGGLARIDYISGGKRPLVCYFSNDLNIHRTKTENANELWRNQLGDVLSPPNNPDHFDLQNVKAVRLETGKEKRDVMISGLGFITIDEGAKIIVRVPKNVDVVLRNSIMLEHHHHHH", "soluble on expression in E. coli": "not soluble"}, {"sequence": "MAETVGMILCGGFGKRLRPLTEKIPKPLIEIKEGYTILDKQLFDLKNAGINTVYLLTGFLGERIEERYGDNYKGLRIEYVREEKPLGTLNAIRLGMEAIDGEKQCIIRNGDVVADLNIKKMIHLGEMSDYPLTMFITRMQSPYGIVETSGDKIINFREKPLLDYYINAGVYFSKGNLDFGDFESGDIEKTLFPLMAKENKLGYYREDGLFWMAIDTSKELEEIRKEYRNREDKPWGYEKILINTEKYLTKELFIREGYRTSFHYHEEKDETMYIISGSGYIEFDNRKEYFSKNDTIRIEPGERHSIVAMENTVLHEVSTPHLNDTVRVQDYYTRLEHHHHHH", "soluble on expression in E. coli": "soluble"}, {"sequence": "MAEVKKSNAPEFKGAETLYLIDIPQPDGKTTKTVRFFNQTSGSRSIEAGEIELKTKDKSGSDYGDVTQSASIEGICTEGDEGLDYVEEAILNKVLVRIHEVNLRSATASEFKVKSGTYMLNSLELSHENEEYSKYSIGLKLNGKISKGTLNKVPEGAPSGDVATPGTE", "soluble on expression in E. coli": "not soluble"}, {"sequence": "MAEVRARVDFKVGAKSNIDAEILSFRGLKTDKEHVAVIFKQADQTQDTPLVRMHSECLTGDVFHSSRCDCGEQLEETIQRMGESGGVILYLRQEGRGIGLYNKIDAYRLQSQGMNTYEANNHLGFDDDLRDFTEAAQMLEALGIKKIRLVTNNPKKIRELAEYGIEIVEVVNTSAHIKDGNENYLRAKVSHGKHNLKVLEHHHHHH", "soluble on expression in E. coli": "soluble"}, {"sequence": "MAEYSMKELIEWNEKIEEIARAEGLDYYEQEFEICSYEDMIAYETYVGMPSHYPHWSYGKNYERIKTLYKYNLTGLPYEMVINSDPCIAYLMKDNTLLLQILTMAHVYGHNDFFKNNRLFKLGTRAKDTVDMFKNHADRIREYIQDPGIGYAKVEKILNAAHAIRYQISRNIGVRVLSQEEKKKELLERYNKPKSEYPLLEPKSKEEEAPPDFKKIPVEPEEDMLLFFMNYSKLTDWERDILSIVREETLYFLPQIETKIMNEGWASFWHYNILNKLNLEQGLHFEFLKRHNQVIRPVLGQLNPYYIGFRIFEDLKKRYEDDPKKIFEVREVERDQSFIRRYLTRELCEEMNLFEYAKIGNSYIVTEVSDEEGWKKIRDTIANNVGLAGIPVIKVAEWVQKDNTLVLEHEYDGREIELSYAYETMKHIVDLWDGKVMLGTVIDNKKKIIVCNEQKKVTLTDG", "soluble on expression in E. coli": "not soluble"}, {"sequence": "MAFESSKSYYSIGEVSRISGIPAYLLRYWEDYFSELAPARDTRGNRRYTNRDIAMVLNIKDLVYEKGYKLNKASQMVKGGKVDHDGADHKTNEILKLQKQLLREQKEYEITGERRRMLLLEIKDEIEDILELLG", "soluble on expression in E. coli": "not soluble"}, {"sequence": "MAFICELDEQWSYVGSKARQHWLGYAYNTKTGGVLAYTFGPRTDQTCRELLALLTPFNIGMLTSDDWGSYGREVPKNKHLTGKIFTQRIERNNLTLRTRIKRLGRKTICFSRSVEIHEKVIGAFIEKHMFYLEHHHHHH", "soluble on expression in E. coli": "soluble"}, {"sequence": "MAFLKIDNGELLKNIRQFAKKNGLTLAEVATLAGLSASAIYSWKKHTPSVGTLKEVAQVLGTSYTKLVGKDKEPTAKATNAAAVDLKKVIENKKNQFEYDGQPITNEQMKIIRNVLKSMFKTPRL", "soluble on expression in E. coli": "not soluble"}, {"sequence": "MAFSIPPLPWGYDGLAAKGISKEQVTFHYDKHHMGYVTKLNAAANSNPALAAKSVEEIIRTEKGPIFNLAAQIFNHNFYWESMSPNGGGEPSGKLAEAIRASFGSFAKFKEEFTNAAVGHFGSGWAWLVQDTTTKKLKVFQTHDAGCPLTEADLKPILTCDVWEHAYYIDYKNDRPAYVQTFWNVVNWDHAENQFTR", "soluble on expression in E. coli": "soluble"}, {"sequence": "MAFYLPDWSCCGLWLFGRPRNRYSQLPEEPETFECPDRWRAEIDLGLPPGVQVGDLLRNEQTMGSLRQVYLLAVQANSITDHLKRFDAVRVPESCRGVVEAQVAKLEAVRSVIWNTMISLAVSGIEMDENGLKALLDKQAGDSLALMEMEKVATALKMDETGAWAQEISAVVSSVTAPSASAPFINSAFEPEVPTPVLAPPPVVRQPEHSGPTELALT", "soluble on expression in E. coli": "not soluble"}, {"sequence": "MAGDPMGSKNESTASKASGTASEKKKIEYLDKTYEVTVPTDKIAITGSVESMEDAKLLDVHPQGAISFSGKFPDMFKDITDKAEPTGEKMEPNIEKILEMKPDVILASTKFPEKTLQKISTAGTTIPVSHISSNWKENMMLLAQLTGKEKKAKKIIADYEQDLKEIKTKINDKAKDSKALVIRIRQGNIYIYPEQVYFNSTLYGDLGLKAPNEVKAAKAQELSSLEKLSEMNPDHIFVQFSDDENADKPDALKDLEKNPIWKSLKAVKEDHVYVNSVDPLAQGGTAWSKVRFLKAAAEKLTQNLEHHHHHH", "soluble on expression in E. coli": "soluble"}, {"sequence": "MAGDPMNIDYSVLKKYPLCDRCFGRLYGKLIRSSNFDRGHALKLAKAIELEEDLRTALEKMNETPENSEVNPTDLEKLEEIKELMYALHKTGTSGIKLDLIDDIEKYETKFKNEAEYEKNEECDELCPWCKGIFEPENIEKVAENVVEALSEYEFDSFLVGTKLPKRFKELENEIETPFMESIRQEFGRELGKVVVPLIKRRVDKENPDIVVMVNPYNQKVTLQVNPVFIKGRYKKLVRGIPQSHWDCRSCRGKGCEKCNFTGKQYMTSVEEIIAEPFMDVMKGSSEALHGAGREDIDVRMLGHGRPFVIEIKEPKIRKVNLEELASKVNESGNVEIINVEYGVKKDVHFFKNEPHKKTYLAHVECEEKVSNEEVAELVKKLEDLTIDQRTPDRVSHRRADLVRVRKVYKAWPHMIDDYNFELKIFCDGGLYIKELINSDEGRTTPSVSELLNKKCICKFLDVLDVHDYEDAENILEHHHHHH", "soluble on expression in E. coli": "soluble"}, {"sequence": "MAGDPMQKVKSDILTHRGSHFDLGVQTAQWMQHTPLLKNREQEWKKRMPRFDIHIKETYDIFQTYAPQIWEEIRGMQEVLNLPTRQMILNFAHYRFTPLKNSGCTVYLGNDYMVRNYDYHPATYDGRYLLFQPNDGGLAQIGPTSRVTGRMDGMNEAGLAMGYNFMHRKHPGDGFVCYMIGRLVLQYCKDVPEAIKLLKEIPHRSSFSYIVMDKYLNHAIIEVTPRSIDVRYDHTCTNHFKLLTHENRNYTKESTERLDRLIKQTPAQLGKMDAFKLFNNPEFEIYSKLFKSWSGTIHTSMYEPQSLTAHITLGENKAPVEIDFQQWLNGESLNINELTGQIDTELTFATYLEHHHHHH", "soluble on expression in E. coli": "not soluble"}, {"sequence": "MAGFVPLRWPISRMSSAVPRYIVGIDLGTTHTVVSYADGGDPSRIEPLFLEQLVAPGQVAGRPLLPSVRYHPATGELAEADTALPWPVEETAPGCRPVIGEFARQLGSRSRGRLVASAKSWLCHTGVDRTADILPWGAPDEVPKVSPVEASASFLRHVRCAWNHRFPAHPLETQDVIVTIPASFDDAARALTVEAARRAGLANVRLLEEPQAACYDFLWTYRGRLAETLEGVNLLLVCDVGGGTTDFTLIRVDAGGSEPELERIAVGNHLMLGGDNIDLTLAHRLEPRLTGAERSLSATDLILLAEQCRRAKETLLAEQGPESVTVTLLGKGGGLIGGARSVELSRHEVLEVVLDGFFPRVGADAVPERRSGVVEFGLPYAADPAITRHAAAFLIRHRNDAGGAAPDALLLNGGVFHSPVIAGRMAEVVGSWCGRTPVMLRNPRPDQAVAFGAVAFGLSRRGLAVRRIGGGSARAYYLLVGDANERSRRGVCILPRGAAEGQEWTVERRNFLLSVGRPVRFHVFSSTVDSGHAPGDLAVLDEAGFGELPPLAVALQAQEQGDVEVRLAARLTAIGTLQLQCVAVGDPEQRWDLELQLRGGGPRPTASASLHPRAAEAQEHIGLIFGKKTRQFGPKAVKTLRNDLEKILGKREDWDTALCRELYAALLEGAPHRRRSADHERLWLSLAGYCLRPGFGAPLDDWRVGQVWNLYSQGLQFVNEAQNWSEWWIVWRRIAGGLRAEAQQRLFADVAGFIDPVRARRGNAEALAKKRAFEDMVRLAASLERLSAGDKTMLGGWLVQRLDKAPDSAELWWALGRVGARAPFHGSAHNLVAREVVEDWVELALQRDWKRQGFVAFAATLLARLTGDRERDLDATLRNRVAEKLVASSAPEIWLELVTEVRGLDASDEKRIFGEGLPPGLRLVDSAWGALEHHHHHH", "soluble on expression in E. coli": "not soluble"}]}]}
